Reference: article PMC11176775 (2024)

B1: LIGIIIα▵BRCT (1–755 amino acids) (domain or fragment)
chain: MAEQRFCVDYAKRGTAGCKKCKEKIVKGVCRIGKVVPNPFSESGGDMKEWYHIKCMFEKLERARATTKKIEDLTELEGWEELEDNEKEQITQHIADLSSKAAGTPKKKAVVQAKLTTTGQVTSPVKGASFVTSTNPRKFSGFSAKPNNSGEAPSSPTPKRSLSSSKCDPRHKDCLLREFRKLCAMVADNPSYNTKTQIIQDFLRKGSAGDGFHGDVYLTVKLLLPGVIKTVYNLNDKQIVKLFSRIFNCNPDDMARDLEQGDVSETIRVFFEQSKSFPPAAKSLLTIQEVDEFLLRLSKLTKEDEQQQALQDIASRCTANDLKCIIRLIKHDLKMNSGAKHVLDALDPNAYEAFKASRNLQDVVERVLHNAQEVEKEPGQRRALSVQASLMTPVQPMLAEACKSVEYAMKKCPNGMFSEIKYDGERVQVHKNGDHFSYFSRSLKPVLPHKVAHFKDYIPQAFPGGHSMILDSEVLLIDNKTGKPLPFGTLGVHKKAAFQDANVCLFVFDCIYFNDVSLMDRPLCERRKFLHDNMVEIPNRIMFSEMKRVTKALDLADMITRVIQEGLEGLVLKDVKGTYEPGKRHWLKVKKDYLNEGAMADTADLVVLGAFYGQGSKGGMMSIFLMGCYDPGSQKWCTVTKCAGGHDDATLARLQNELDMVKISKDPSKIPSWLKVNKIYYPDFIVPDPKKAAVWEITGAEFSKSEAHTADGISIRFPRCTRIRDDKDWKSATNLPQLKELYQLSKEKADFTVVA
B2: LIGIIIα▵ZnF (170–922 amino acids) (domain or fragment)
chain: RHKDCLLREFRKLCAMVADNPSYNTKTQIIQDFLRKGSAGDGFHGDVYLTVKLLLPGVIKTVYNLNDKQIVKLFSRIFNCNPDDMARDLEQGDVSETIRVFFEQSKSFPPAAKSLLTIQEVDEFLLRLSKLTKEDEQQQALQDIASRCTANDLKCIIRLIKHDLKMNSGAKHVLDALDPNAYEAFKASRNLQDVVERVLHNAQEVEKEPGQRRALSVQASLMTPVQPMLAEACKSVEYAMKKCPNGMFSEIKYDGERVQVHKNGDHFSYFSRSLKPVLPHKVAHFKDYIPQAFPGGHSMILDSEVLLIDNKTGKPLPFGTLGVHKKAAFQDANVCLFVFDCIYFNDVSLMDRPLCERRKFLHDNMVEIPNRIMFSEMKRVTKALDLADMITRVIQEGLEGLVLKDVKGTYEPGKRHWLKVKKDYLNEGAMADTADLVVLGAFYGQGSKGGMMSIFLMGCYDPGSQKWCTVTKCAGGHDDATLARLQNELDMVKISKDPSKIPSWLKVNKIYYPDFIVPDPKKAAVWEITGAEFSKSEAHTADGISIRFPRCTRIRDDKDWKSATNLPQLKELYQLSKEKADFTVVAGDEGSSTTGGSSEENKGPSGSAVSRKAPSKPSASTKKAEGKLSNSNSKDGNMQTAKPSAMKVGEKLATKSSPVKVGEKRKAADETLCQTKVLLDIFTGVRLYLPPSTPDFSRLRRYFVAFDGDLVQEFDMTSATHVLGSRDKNPAAQQVSPEWIWACIRKRRLVAPC

Target: Apurinic/apyrimidinic-endonuclease 1 (UniProt P27695 1-318)
Experiment: SPR

Sequence of Apurinic/apyrimidinic-endonuclease 1 (P27695 whole entry): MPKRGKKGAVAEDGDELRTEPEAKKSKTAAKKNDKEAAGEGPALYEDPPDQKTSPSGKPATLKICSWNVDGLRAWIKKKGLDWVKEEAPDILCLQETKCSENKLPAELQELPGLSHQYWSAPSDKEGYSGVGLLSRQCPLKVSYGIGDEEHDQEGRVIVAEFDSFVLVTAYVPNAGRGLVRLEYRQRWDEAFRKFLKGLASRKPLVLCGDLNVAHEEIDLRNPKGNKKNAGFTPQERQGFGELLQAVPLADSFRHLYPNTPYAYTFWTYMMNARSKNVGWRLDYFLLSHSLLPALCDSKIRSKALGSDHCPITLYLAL

Binder	Kd [nM]
B1	1050
B2	4.9
